Experimental data taken from patent US20220025022A1 (published 2022).

B1: VHH antibody 2R23 (monomeric) (VHH)
VHH: QVQLQESGGGLVQAGGSLRLSCAASGYIFWSYGYMGWYRQAPGKERELVATISRGGTTNYADSVKGRFTISRDNAKNTVYLQMNSLKPEDTAVYYCAAGRYAFGYFKYWGQGTQVTVSS
notes: also called clone 2R23
B2: VHH antibody 1D7 (monomeric) (VHH)
VHH: EVQLVESGGGLVQAGGSLTLSCAASERTFSYYVMAWFRQAPGKEREFVAGISMSGDSTKYADSVKGRFTISRDNAENTGYLQMNGLKPEDTAVYYCAADRDIRGNFRSWGRGTQVTVSS
notes: also called clone 1D7
B3: VHH antibody 2R215 (monomeric) (VHH)
VHH: QVQLQESGGGLVQAGGSLRLSCAASGNIFQDAEMGWYRQAPGKEREFVATIAYGGNTNYADSVKGRFTISRDNAKNTVYLQMNSLKPEDTAVYYCAVYTGVYYDRTTGGYVAFEYWGQGTQVTVSS

How the values were obtained:
[1] = target: T1, MBP-CfaE-N (recombinant N-terminal adhesin domain of CfaE fused to an MBP tag) (enterotoxigenic Escherichia coli (ETEC), UniProt P25734 24-205, Biotinylated for SPR; FITC or Alexa dye labelled for flow cytometry; sites not stated.); assay: SPR (Biacore T200), CfaE on CM5 chip, VHH injected, 25 C, 1:1 model
T1 construct: Used plain (ELISA), biotinylated (SPR) and FITC/Alexa-labelled (flow cytometry); GenBank M55661 is printed for the nucleic acid; also called recombinant N-terminal truncated CfaE protein; N-terminal CfaE protein
T1 sequence: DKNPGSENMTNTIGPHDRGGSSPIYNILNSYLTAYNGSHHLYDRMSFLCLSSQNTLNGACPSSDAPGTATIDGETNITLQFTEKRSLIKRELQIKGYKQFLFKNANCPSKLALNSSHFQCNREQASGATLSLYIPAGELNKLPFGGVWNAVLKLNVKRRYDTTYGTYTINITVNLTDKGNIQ

[2] = target: CS2 on ETEC strain #201546 (enterotoxigenic Escherichia coli (ETEC)); assay: cell-based or functional assay
[3] = target: CS14 on ETEC strain #400599 (enterotoxigenic Escherichia coli (ETEC)); assay: cell-based or functional assay
[4] = target: CS5 on ETEC strain #204348 (enterotoxigenic Escherichia coli (ETEC)); assay: cell-based or functional assay
[5] = target: CS19 on ETEC strain #204648 (enterotoxigenic Escherichia coli (ETEC)); assay: cell-based or functional assay
[6] = target: CS3 on ETEC strain #100483 (enterotoxigenic Escherichia coli (ETEC)); assay: cell-based or functional assay
[7] = target: CS4 on ETEC strain (enterotoxigenic Escherichia coli (ETEC)); assay: cell-based or functional assay
[8] = target: T2, CFA/I fimbrial protein (with adhesin subunit CfaE) on ETEC strain H10407 (enterotoxigenic Escherichia coli (ETEC), UniProt P25734 1-360); assay: cell-based or functional assay
T2 sequence (looked up): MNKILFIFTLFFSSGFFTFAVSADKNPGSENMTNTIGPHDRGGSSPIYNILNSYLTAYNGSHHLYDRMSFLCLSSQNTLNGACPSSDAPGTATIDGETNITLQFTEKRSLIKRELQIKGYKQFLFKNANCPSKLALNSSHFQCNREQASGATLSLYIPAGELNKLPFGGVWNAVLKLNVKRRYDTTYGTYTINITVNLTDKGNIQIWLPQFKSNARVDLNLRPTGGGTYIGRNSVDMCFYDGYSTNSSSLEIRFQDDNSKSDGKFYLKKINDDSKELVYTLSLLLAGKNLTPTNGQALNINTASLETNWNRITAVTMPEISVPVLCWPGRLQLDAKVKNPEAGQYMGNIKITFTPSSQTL

[9] = target: CS6 on ETEC strain #100001 (enterotoxigenic Escherichia coli (ETEC)); assay: cell-based or functional assay
[10] = target: CS1 on ETEC strain #200145 (enterotoxigenic Escherichia coli (ETEC)); assay: cell-based or functional assay
[11] = target: CS21 on ETEC strain #100171 (enterotoxigenic Escherichia coli (ETEC)); assay: cell-based or functional assay
[12] = target: CS17 on ETEC strain (enterotoxigenic Escherichia coli (ETEC)); assay: cell-based or functional assay
[13] = target: T3, recombinant CS2 (N-terminal adhesin domain of CotD, MBP-tagged) (enterotoxigenic Escherichia coli (ETEC)); assay: ELISA on coated recombinant antigen
T3 construct: also called CotD, CS2; colonization factor antigen CS2
T3 chain: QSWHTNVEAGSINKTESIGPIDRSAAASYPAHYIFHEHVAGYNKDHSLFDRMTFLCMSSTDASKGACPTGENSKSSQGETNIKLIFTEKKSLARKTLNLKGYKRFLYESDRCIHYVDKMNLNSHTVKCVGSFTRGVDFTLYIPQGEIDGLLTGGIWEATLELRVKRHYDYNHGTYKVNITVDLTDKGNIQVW

Binder | Kd [1] [nM] | koff [1] [s⁻¹] | kon [1] [M⁻¹ s⁻¹] | MRHA IC100 [2] [µg/mL] | MRHA IC100 [3] [µg/mL] | MRHA IC100 [4] [µg/mL] | MRHA IC100 [5] [µg/mL] | MRHA IC100 [6] [µg/mL] | MRHA IC100 [7] [µg/mL] | MRHA IC100 [8] [µg/mL] | MRHA IC100 [9] [µg/mL] | MRHA IC100 [10] [µg/mL] | MRHA IC100 [11] [µg/mL] | MRHA IC100 [12] [µg/mL] | binding result [13]
B1 | 9.06 | 64.6 | 7.13e+09 | 200 | 25 | 12.5 | 200 | 100 | 25 | 50 | 12.5 | 200 | 25 | 6.25 | 
B2 | 17.7 | 0.0311 | 1.75e+06 | 50 | 100 | 3.12 | 100 | 50 | 200 | 100 | 12.5 | 50 | 25 | 6.25 | no binding
B3 |  |  |  | 6.25 | 200 | 6.25 | 200 | 100 | 100 | 25 | 25 | 200 | 25 | 6.25 | 
